This note sets out measurements from patent US10350264B2, “Compositions and methods for modulating NCOA4-mediated autophagic targeting of ferritin” (Dana-Farber Cancer Institute, Inc., priority 2014, dated 2019).

The test system of series [1] is 8988T and U2OS cells. Briefly: chelation assay, ferritin degradation by FTH1 immunoblot. Format: cell-based, human. The following applies: FAC loading then chelators (DFO, BPS, DFP); FIG. 3(a)-(b), FIG. 19. The protocol:
Chelation assays were performed similarly to those previously described with slight modifications [Asano et al., supra]. Briefly, U2OS and 8988T cells stably expressing shRNAs as described above (shGFP, shNCOA4-1, shNCOA4-2, selected with puromycin) were plated (2×10^5 cells/well) and cultured for 24 hours in FAC (36 μM or 180 μM). Cells were washed three times with PBS and subjected to iron chelation with the described chelators minus or plus lysosomal protease inhibitors (E-64d and PepstatinA) or the proteasomal inhibitor, Bortezomib. Cells were harvested at the indicated time points, washed with PBS, and lysed in 50 mM Tris-HCl (pH 7.4), 150 mM NaCl, 1% Nonidet P40, 0.1% SDS, 2 mM EDTA, 2 mM DTT, protease inhibitors and analyzed by 4-20% gradient SDS-PAGE followed by immunoblotting with the indicated antibodies. Experiments were performed at a minimum in biological triplicate. Quantitation of Western blots was performed using ImageJ [Schneider, C. A., et al. Nature Methods 9, 671-675 (2012)]. Cells were treated similarly for immunofluorescence experiments (including IMR90 and HPDE cells). Cells plated on glass coverslips were treated as described and fixed with 4% paraformaldehyde prior to immunofluorescence using anti-ferritin and anti-LAMP2. Data were collected as described above.

Series [2] has as its system 8988T cells. The series can be described thus: NCOA4 protein levels while blocking autophagic flux (immunoblot). Format: cell-based, human. Particulars: CQ or BAF 8 hours, FIG. 2(c).
For series [3], the system named is PANC1 cells. Briefly: autophagosome formation, fluorescence microscopy of cells expressing GFP-MAP1LC3B. Format: cell-based, human. Particulars: Wortmannin 200 nM 1 h, chloroquine 25 μM 4 h, FIG. 13(b).
The target of series [4] is T1, NCOA4(aa 383-522)-GST (Homo sapiens, UniProt Q13772).
T1 construct: NCOA4(aa 383-522)-GST or GST alone was incubated with; made in house; host or cells: E. coli BL21 (DE3)
T1 sequence (Q13772 383-522): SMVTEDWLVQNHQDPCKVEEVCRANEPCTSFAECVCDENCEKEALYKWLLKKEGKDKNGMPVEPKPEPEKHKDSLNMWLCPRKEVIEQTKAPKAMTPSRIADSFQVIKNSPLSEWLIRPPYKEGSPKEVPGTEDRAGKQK
The series can be described thus: GST pull-down assay of WT and point mutant FTH1 using NCOA4(aa 383-522)-GST. It is filed as binding. The following applies: 40 μg FTH1, InstantBlue stain; FIGS. 23A-D.
Experimental: Beads were washed thoroughly with 150 mM NaCl, 20 mM Tris (pH 7.4), 2 mM dithiothreitol (DTT), 0.5% (w/v) Nonidet P-40, leaving 50-100 μg of GST-fusion protein bound to the beads. Beads were then mixed with 40 μg of recombinant human WT or point mutant FTH1 produced in Rosetta E. coli (EMD Millipore, 70953-3). The assay mix was incubated for 30 minutes at 4° C., and beads were washed three times with 1 ml wash buffer. Proteins were eluted with SDS sample buffer and analyzed by 4-20% gradient SDS-PAGE. InstantBlue Stain (Expedeon: catalog #ISB1L) was used to visualize GST-NCOA4 bands and FTH1 bands.

Series [5] has as its system FTH1. The series can be described thus: IVT-based interaction experiment with His-GST-HA tagged NCOA4 constructs and GST pull-down. Format: binding. Particulars: equal load of fragments; FIG. 9.
The target of series [6] is T2, apo-ferritin purified from equine spleen (Equus caballus, UniProt Q8MIP0).
T2 construct: apo-ferritin purified from equine spleen; purchased Sigma F4503; host or cells: equine spleen
T2 sequence (Q8MIP0 whole entry): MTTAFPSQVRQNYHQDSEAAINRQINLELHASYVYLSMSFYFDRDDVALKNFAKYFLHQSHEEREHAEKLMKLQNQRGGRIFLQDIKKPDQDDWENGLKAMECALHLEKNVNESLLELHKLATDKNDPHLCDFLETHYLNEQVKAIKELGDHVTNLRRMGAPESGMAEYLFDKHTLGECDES
T2 sequence (P02791 2-175 partner limits assumed): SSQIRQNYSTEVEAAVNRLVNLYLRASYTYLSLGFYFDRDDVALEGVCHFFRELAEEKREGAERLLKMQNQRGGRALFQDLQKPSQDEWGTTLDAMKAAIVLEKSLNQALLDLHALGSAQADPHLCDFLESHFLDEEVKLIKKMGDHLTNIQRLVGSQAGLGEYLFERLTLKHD
The series can be described thus: GST pull-down assay of ferritin using GST-NCOA4 fragments. Format: binding. Particulars: anti-FTH1 immunoblot. An excerpt:
GST-tagged NCOA4 constructs were also made to probe the interactions of C-terminal portions of NCOA4 with ferritin. NCOA4-truncation constructs were produced using Gateway cloning (Invitrogen, Life Technologies, catalog #11789-013 and 11791-019) into a pDEST60 N-terminal GST fusion plasmid (GST-NCOA4) from EMD Millipore (Gateway Nova pET-60-DEST, product #71851-3) and transformed in E. coli BL21 (DE3) cells (New England Biosciences, C2527I).
NCOA4 truncation constructs were designed based on NCBI reference sequence: NP_001138735.1 (SEQ ID NO: 4). In particular, fragments of SEQ ID NO: 4 consisting of amino acids (aa) 1-245, aa 235-614, aa 235-560, aa 235-401, aa 383-560, aa 545-614, aa 383-522, aa 510-560, aa 383-436, aa 436-485, aa 475-522, aa 475-500, aa 480-500, aa 480-504, aa 485-509, aa 490-514, aa 495-522 were designed. Protein expression in the DE3 cells was induced with 1 mM isopropyl-beta-D-thiogalactopyranoside (IPTG) (Sigma, I6758-10 G) for 3 hours at 37° C. Cells were collected by centrifugation, re-suspended in 25 mM Tris-HCl (pH 7.4), 10% (w/v) sucrose and lysed with a single freeze-thaw cycle followed by sonication. After centrifugation, a GST pull-down assay was performed.
In the GST pull-down assay, lysates were incubated with 10 μl of a 50% (v/v) slurry of glutathione Sepharose 4B beads (GE Healthcare Lifesciences, 17-0756-01) for 30 minutes at 4° C. Beads were washed thoroughly with 150 mM NaCl, 20 mM Tris (pH 7.4), 2 mM dithiothreitol (DTT), 0.5% (w/v) Nonidet P-40, leaving 50-100 μg of GST-fusion protein bound to the beads. Beads were then mixed with 0.5-2 μg of apo-ferritin purified from equine spleen (Sigma F4503) or recombinant human FTH1 or FTL produced in Rosetta E. coli (EMD Millipore, 70953-3). The assay mix was incubated for 2 hours at 4° C., and beads were washed four times with 1 ml wash buffer. Proteins were eluted with SDS sample buffer and analyzed by 4-20% gradient SDS-PAGE and immunoblotting with anti-FTH1 antibody (as above) or anti-FLAG antibody (Sigma, F1804-200 UG). Pounceau stain was used to visualize GST-NCOA4 bands. (Pounceau, Sigma, P7170-1 L, protocol as per product manual).

Series [7] addresses T3, HERC2-FLAG fragment (F3, HERC2 amino acids 1700-2700) (Homo sapiens, UniProt O95714).
T3 construct: HERC2-FLAG fragment (F3, HERC2 amino acids 1700-2700) was produced as described in Bekker-Jensen et al; expressed in transfected cells; host or cells: 293T cells (transient transfection, lysate used)
T3 sequence (O95714 1700-2700): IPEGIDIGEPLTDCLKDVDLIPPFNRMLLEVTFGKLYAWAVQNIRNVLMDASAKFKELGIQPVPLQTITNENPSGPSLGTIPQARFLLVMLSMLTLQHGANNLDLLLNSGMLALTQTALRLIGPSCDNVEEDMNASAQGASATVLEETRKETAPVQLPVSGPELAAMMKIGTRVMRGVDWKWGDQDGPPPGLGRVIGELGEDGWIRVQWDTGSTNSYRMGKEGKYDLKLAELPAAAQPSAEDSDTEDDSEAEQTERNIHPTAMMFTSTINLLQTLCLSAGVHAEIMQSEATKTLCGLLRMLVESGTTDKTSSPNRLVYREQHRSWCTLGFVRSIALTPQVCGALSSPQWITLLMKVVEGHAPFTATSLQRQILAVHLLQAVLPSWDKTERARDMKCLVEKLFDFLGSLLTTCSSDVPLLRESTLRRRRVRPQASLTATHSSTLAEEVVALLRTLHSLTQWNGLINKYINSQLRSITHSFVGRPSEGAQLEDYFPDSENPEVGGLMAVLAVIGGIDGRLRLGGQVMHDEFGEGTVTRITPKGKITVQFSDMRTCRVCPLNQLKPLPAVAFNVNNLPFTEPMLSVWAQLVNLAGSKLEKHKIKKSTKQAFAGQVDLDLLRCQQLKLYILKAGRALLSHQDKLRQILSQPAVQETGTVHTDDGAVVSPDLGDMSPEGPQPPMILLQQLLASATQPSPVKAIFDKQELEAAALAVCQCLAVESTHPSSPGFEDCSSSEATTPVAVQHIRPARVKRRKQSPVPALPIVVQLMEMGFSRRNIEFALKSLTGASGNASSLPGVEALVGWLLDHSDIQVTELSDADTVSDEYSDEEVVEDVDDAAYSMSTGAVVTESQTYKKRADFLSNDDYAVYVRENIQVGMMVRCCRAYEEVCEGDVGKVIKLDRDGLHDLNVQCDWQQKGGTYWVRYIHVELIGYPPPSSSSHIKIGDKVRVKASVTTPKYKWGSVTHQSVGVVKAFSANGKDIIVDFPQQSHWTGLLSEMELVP
The series can be described thus: GST pull-down assay of HERC2-FLAG Fragment 3 using GST-NCOA4 fragments. It is filed as binding. Particulars: 293T lysate expressing HERC2-FLAG F3, anti-FLAG immunoblot; FIG. 12. Here is the method:
To map the interaction of NCOA-4 with HERC2, the GST-NCOA4 truncation constructs described above were also tested in a GST pull-down assay with HERC2-FLAG expressing 293T cell line. HERC2-FLAG fragment (F3, HERC2 amino acids 1700-2700) was produced as described in Bekker-Jensen et al., Nature Cell Biology (2010) 12; 80-86. The HERC2-FLAG F3 was transiently transfected into 293T cells using standard transfection procedures using PEI (Polysciences, #23966-2).
Lysates were obtained, as above, and incubated with 10 μl of a 50% (v/v) slurry of glutathione Sepharose 4B beads for 30 minutes at 4° C. Beads were washed thoroughly with 150 mM NaCl, 20 mM Tris (pH 7.4), 2 mM DTT, 0.5% (w/v) Nonidet P-40, leaving 50-100 μg of GST-fusion protein bound to the beads. Beads were then mixed with 300 μg of lysate from a HERC2-FLAG expressing 293T cell line, as above. The assay mix was incubated for 2 hours at 4° C., and beads were washed four times with 1 ml wash buffer. Proteins were eluted with SDS sample buffer and analyzed by 4-20% gradient SDS-PAGE and immunoblotting with anti-HERC2 antibody or anti-FLAG antibody, as above. Coomassie stain was used to visualize GST-NCOA4 bands as above.

“Also recorded” adds a separate entry of the source.

As for “5′ CCCAGGAAGTATTACTTAATT 3′ (expressed or natural sequence) [shNCOA4-1]”, the “ferritin degradation in response to iron chelation” value in series [1] is recorded as “rescued ferritin degradation”.

Regarding “5′ GCTGGCAAACAGAAGTTTAAA 3′ (expressed or natural sequence) [shNCOA4-2]”, the “ferritin degradation in response to iron chelation” value in series [1] was “rescued ferritin degradation”.

Take `CCN(CC)CCCC(C)Nc1ccnc2cc(Cl)ccc12` (centres unmarked) [chloroquine, Chloroquine]: the NCOA4 protein levels entry in series [2] is reported as “markedly increased”. In series [3], the effect on autophagosomes entry is reported as “caused accumulation of autophagosomes”.

For “FTH1 R23A point mutant: recombinant human ferritin heavy chain with R23A point mutation, produced in E. coli”, the “binding of FTH1 (WT or point mutant) to NCOA4(383-522)-GST” value in series [4] is on record as “bound only very weakly”.

As for “KAMTPSRIADSFQVIKNSPLSEWLIRPPYKEGSPKEVPGTEDRAGKQK (Homo sapien) [aa 475-522]”, in series [5], the “pull-down of FTH1 by IVT GST-NCOA4 fragment” value was “equally pulled down (bound to) FTH1”. Further, the “binding of GST-NCOA4 fragment to ferritin” value in series [6] (FIGS. 7, 8, 11) is “interacted with ferritin; also recorded: bound to ferritin”; in series [6] (FIGS. 7, 8, 11, listed as amino acids 475-522) it was “bind to ferritin”.

B1: aa 383-522: fragment of NCOA4 SEQ ID NO: 4 (protein)
chain: T1 sequence (Q13772 383-522)
modifications: GST tag; Homo sapien
With B1, the “pull-down of FTH1 by IVT GST-NCOA4 fragment” value in series [5] was “equally pulled down (bound to) FTH1”. For the same molecule, in series [6] (FIGS. 7, 8, 11), the “binding of GST-NCOA4 fragment to ferritin” value is on record as “bind to ferritin”. Further, the “binding of GST-NCOA4 fragment to HERC2-FLAG” value in series [7] is given as “bound to HERC2-FLAG”.
